Data on 27 molecules can be found in patent CN117677637A (PETEMEDI LTD, dated 2024).

Numbering of substitutions follows the chain as printed.

In test [1] the target is T1, 犬CD20 (canine CD20, B淋巴细胞抗原CD20, full length, wild type) (canine (dog), UniProt Q3C2E2 1-297).
T1 construct: Stably expressed from full-length cDNA on MDCK II (or HEK293) cells for flow cytometry and ADCC; naturally expressed on CLBL-1 canine lymphoma cells in the CDC assay; also called cCD20; MS4A1
T1 chain: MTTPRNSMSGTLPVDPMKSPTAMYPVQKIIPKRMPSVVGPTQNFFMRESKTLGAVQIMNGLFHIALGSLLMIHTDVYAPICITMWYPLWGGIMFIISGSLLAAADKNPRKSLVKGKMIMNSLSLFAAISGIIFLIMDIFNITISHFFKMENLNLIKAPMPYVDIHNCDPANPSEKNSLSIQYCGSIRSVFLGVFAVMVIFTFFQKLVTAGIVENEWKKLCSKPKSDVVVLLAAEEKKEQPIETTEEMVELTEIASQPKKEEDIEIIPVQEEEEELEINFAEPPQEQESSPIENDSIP
The test can be described thus: flow cytometry on MDCK cells expressing wild-type canine CD20 (positive control of epitope mapping).

Test [2] has as its target T1, 犬CD20 (canine CD20, B淋巴细胞抗原CD20, full …). The test can be described thus: flow cytometry, 10 ug/ml antibody on MDCK II cells expressing canine CD20 (Fig 3C).
The target is the same in test [3]. Briefly: flow cytometry, 10 ug/ml antibody on MDCK II cells expressing canine CD20 (Fig 3A); equal to 4E1-7.
For test [4] the target is unchanged. Briefly: flow cytometry, 10 ug/ml antibody on MDCK II cells expressing canine CD20 (Fig 3A).
The target is the same in test [5]. Briefly: flow cytometry on cells expressing canine CD20, against PMX003 (Fig 3B); unchanged.
Test [6] has the same target. Briefly: flow cytometry, 10 ug/ml antibody on MDCK II cells expressing canine CD20 (Fig 3B).
For test [7] the target is unchanged. The test can be described thus: flow cytometry on cells expressing canine CD20, against PMX003 (Fig 3B); slight decrease.

B1: PMX003 (antibody, V domains shown)
VH: EVQLVESGGDLVKPGGSLRLSCVASGITFSRYHMSWVRQAPGKGLQWVAYINSGGSSTSYPDAVKGRFTISRDNAKNTLYLQMDSLRAEDTALYYCTTFDYWGQGTLVTVSS
VL: SYVLTQLPSKNVTLKQPAHITCGGDNIGSKSVHWYQQKLGQAPVLIIYYDSRRPTGIPERFSGANSGNTATLTISGALAEDEADYYCQVWDSSANVFGGGTHLTVL
notes: Fully canine mAb; Tested in native form and in an a-fucosylated form (made in Fut8 knockout CHO cells) in CDC/ADCC; also called PMX003 mAb
Turning to B1, the binding result in test [1] is recorded as “binds”.

B2: PMX080 (antibody, V domains shown)
VH: EVQLVESGGDLVKPGGSLRLSCVASGLTFSRYYMNWVRQAPGKGLQWVAYIDSGGSPTNYADAVKGRFTISRDNAKNTLYLQMNSLRAEDTAVYYCSSFDYWGQGTLVTVSS
VL: B1 VL with L4V, K10N, N11T
On to B2, for which the binding result in test [2] was “binds”.

B3: PMX074 (antibody, V domains shown)
VH: EVQLVESGGDLVKPGGSLRLSCVASGFTFSRYYMTWVRQAPGKGLQWVAYINSDRRSTTYADAVKGRFTISRDNAKNTLYLQMNSLRAEDTAVYYCTTLEYWGQGTLVTVSS
VL: B1 VL with S75N
Take B3: the binding result in test [2] is “binds”.

B4: PMX066 (antibody, V domains shown)
VH: AVQLVESGGDLVKPGGSLRLSCVASGITFSRYHMSWVRQAPGKGLQWVAYINSGGSATSYTDAVKGRFSISRDNGKNTLYLQMNSLRVEDSAVYYCTTLDLWGQGTLVTVSS
VL: B1 VL with S75N, V89M
notes: Canine mAb
As to B4, the binding result in test [2] is “binds”.

B5: PMX076 (antibody, V domains shown)
VH: B2 VH with L27I, N59T, N77K, T78A, S97T
VL: B1 VL with R52S, Y86F
As for B5, in test [2], the binding result is “binds”.

B6: PMX078 (antibody, V domains shown)
VH: B2 VH with Y33H, N35S, V37I, D52S, P57S, D62G, A63S, I70V, S97T, F99L
VL: B1 VL with A94D
Regarding B6, in test [2], the binding result was “binds”.

B7: PMX002 (antibody, V domains shown)
VH: EVQLVESGGDLVKPGGSLRLSCVASGIIFSNYHMSWVRQVPGKGLQWVAYINSGGSTINYADGVKGRFTISRDNAKNSLYLQMNSLRGEDTAVYYCTTYDSWGQGTLVTVSS
VL: B1 VL with R52S, A94V
notes: Fully canine mAb; also called PMX002 mAb
As for B7, the binding result in test [3] is given as “binds”.

B8: PMX071 (antibody, V domains shown)
VH: B2 VH with Q3H, L27I, S30N, A40T, N59T, S97T
VL: B1 VL with V44I, S51T, R52S
As to B8, the binding result in test [2] is “binds”.

B9: PMX081 (antibody, V domains shown)
VH: EVQLVQSGGDLVKPGGSLRLSCVASGYTFTRYHMSWVRQAPGKGLQWVAFINSDGTGITYGDAVKGRFTISRDNAKNTLYLQMNSLRAEDTAIYYCTTFDSWGQGTLVTVSS
VL: B1 VL with V44I, A94G
With B9, the binding result in test [2] is listed as “binds”.

B10: PMX075 (antibody, V domains shown)
VH: EVQLVESGGDLVKPGGSLRLSCVASGITFSRYHMSWVRQAPGKGLQWVAFINTGRSSTNYADAVAGRFTISRDNAKNTLYLQMNGLTVEDTAVYYCSTLDYWGQGTLVTVSS
VL: B1 VL with N11S, V44I, S51N, R52N, Q88H, A94V
For the molecule B10, in test [2], the binding result was “binds”.

B11: PMX069 (antibody, V domains shown)
VH: EMQLVESGGALVKPGGSLRLSCVASGFTFRRYHMSWVRQAPGQGLQWVAYIDSDGSPTSYGDSVKGRFTISRDNAKNTLFLQMNSLRVDDTAVYYCTTLDYWGRGTLVTVSS
VL: B1 VL with L7V, S29G, V44L, S51T, G76R, A94G, L106I
notes: also called PMX0069
Consider B11, for which, in test [2], the binding result is “binds”.

B12: PMX004 (antibody, V domains shown)
VH: EVQLVESGGELVKPGGSLRVSCVASGITFSRYHMSWVRQAPGKGLQWVAFINTDRSSPKYADSVKGRFTISRDNAKNTLYLQMNSLRAEDTAIYYCTSFDYWGQGTLVTVSS
VL: B1 VL with R52S
notes: Fully canine mAb; also called PMX004 mAb
As for B12, in test [4], the binding result is on record as “binds”.

B13: PMX009 (antibody, V domains shown)
VH: B1 VH
VL: B1 VL with T13A
notes: PMX003 heavy chain; Constant regions not restated (PMX003: dog IGGB / dog IGLC5); also called PMX009 mAb; NVA
Consider B13, for which the binding result in test [5] is “binds”.

B14: PMX011 (antibody, V domains shown)
VH: B1 VH
VL: B1 VL with N11T
notes: PMX003 heavy chain; Constant regions not restated (PMX003: dog IGGB / dog IGLC5); also called PMX011 mAb; TVT
Consider B14, for which the binding result in test [6] is listed as “binds”.

B15: PMX007 (antibody, V domains shown)
VH: B1 VH
VL: B1 VL with N11A
notes: PMX003 heavy chain; Constant regions not restated (PMX003: dog IGGB / dog IGLC5); also called PMX007 mAb; AVT突变体
On to B15, for which the binding result in test [7] is “binds”.

B16: PMX077 (antibody, V domains shown)
VH: B2 VH with L27I, D52N, N59T, S97T
VL: B1 VL with V44I, S51T, R52S
In the case of B16, the binding result in test [2] was “binds”.

B17: PMX006 (antibody, V domains shown)
VH: B1 VH
VL: B1 VL with N11Q
notes: PMX003 heavy chain; Constant regions not restated (PMX003: dog IGGB / dog IGLC5); also called PMX006 mAb; QVT突变体
As to B17, in test [7], the binding result is “binds”.

B18: PMX005 (antibody, V domains shown)
VH: B1 VH with I27F, S57D, T58S, S59D, P61A, D84N, L93V, T98S, F99L
VL: B1 VL with R52S, S92R, A94G
notes: Fully canine mAb; also called PMX005 mAb
On to B18, for which the binding result in test [4] is listed as “binds”.

B19: PMX001 (antibody, V domains shown)
VH: B1 VH with I27F, R31S, S59T, P61A, N77K, D84N, L93V, T97S
VL: B1 VL with K10R, S51T, A94G
notes: Fully canine mAb; also called PMX001 mAb
Regarding B19, in test [4], the binding result is “binds”.

B20: PMX073 (antibody, V domains shown)
VH: B2 VH with L27F, Y50F, D52T, P57S, N59S, A61G, S97T
VL: B1 VL with D50A, R52S
For B20, in test [2], the binding result was “binds”.

B21: PMX008 (antibody, V domains shown)
VH: B1 VH
VL: B1 VL with N11E
notes: PMX003 heavy chain; Constant regions not restated (PMX003: dog IGGB / dog IGLC5); also called PMX008 mAb; EVT
Turning to B21, in test [5], the binding result is given as “binds”.

B22: PMX067 (antibody, V domains shown)
VH: B1 VH with V2I, I27F, S53T, S57N, S59N, P61A, D84N, L93V, F99L, Y101S
VL: B1 VL with S9F, A94V
notes: also called PMX0067
In the case of B22, the binding result in test [2] is “binds”.

B23: PMX072 (antibody, V domains shown)
VH: B10 VH with I27F, G85S, T87R, V88A
VL: B1 VL with R52S
Take B23: in test [2], the binding result is listed as “binds”.

B24: PMX115 (antibody, V domains shown)
VH: B11 VH
VL: B1 VL with L7V, N11S, S29G, V44L, S51T, G76R, A94G, L106I
notes: also called PMX115 mAb
Turning to B24, the binding result in test [1] is “binds”.

B25: PMX079 (antibody, V domains shown)
VH: B1 VH with I27L, Y50F, G55R, S57D, S59T, P61A, D84N, L93V
VL: B1 VL with V44A, R52S
Turning to B25, in test [2], the binding result is reported as “binds”.

B26: PMX010 (antibody, V domains shown)
VH: B1 VH
VL: B1 VL with N11S
notes: PMX003 heavy chain; Constant regions not restated (PMX003: dog IGGB / dog IGLC5); also called PMX010 mAb; SVT
Regarding B26, the binding result in test [6] is listed as “binds”.

B27: PMX070 (antibody, V domains shown)
VH: B1 VH with V2M, I27F, S57P, S59N, P61A, D84N, L93V, F99Y, Y101Q
VL: B1 VL with N11S, R52S, S92T
As for B27, the binding result in test [2] is “binds”.
